Test results from IntAct's records for PubMed 22578008.

B1: Laforin (Mus musculus), Q9WUA5 (parent)
chain: MLFRFGVVVPPAVAGARQELLLAGSRPELGRWEPHGAVRLRPAGTAAGAAALALQEPGLWLAEVELEAYEEAGGAEPGRVDTFWYKFLQREPGGELHWEGNGPHHDRCCTYNEDNLVDGVYCLPVGHWIEATGHTNEMKHTTDFYFNIAGHQAMHYSRILPNIWLGSCPRQLEHVTIKLKHELGVTAVMNFQTEWDIIQNSSGCNRYPEPMTPDTMMKLYKEEGLSYIWMPTPDMSTEGRVQMLPQAVCLLHALLENGHTVYVHCNAGVGRSTAAVCGWLHYVIGWNLRKVQYFIMAKRPAVYIDEDALAQAQQDFSQKFGKVHSSICAL
partner: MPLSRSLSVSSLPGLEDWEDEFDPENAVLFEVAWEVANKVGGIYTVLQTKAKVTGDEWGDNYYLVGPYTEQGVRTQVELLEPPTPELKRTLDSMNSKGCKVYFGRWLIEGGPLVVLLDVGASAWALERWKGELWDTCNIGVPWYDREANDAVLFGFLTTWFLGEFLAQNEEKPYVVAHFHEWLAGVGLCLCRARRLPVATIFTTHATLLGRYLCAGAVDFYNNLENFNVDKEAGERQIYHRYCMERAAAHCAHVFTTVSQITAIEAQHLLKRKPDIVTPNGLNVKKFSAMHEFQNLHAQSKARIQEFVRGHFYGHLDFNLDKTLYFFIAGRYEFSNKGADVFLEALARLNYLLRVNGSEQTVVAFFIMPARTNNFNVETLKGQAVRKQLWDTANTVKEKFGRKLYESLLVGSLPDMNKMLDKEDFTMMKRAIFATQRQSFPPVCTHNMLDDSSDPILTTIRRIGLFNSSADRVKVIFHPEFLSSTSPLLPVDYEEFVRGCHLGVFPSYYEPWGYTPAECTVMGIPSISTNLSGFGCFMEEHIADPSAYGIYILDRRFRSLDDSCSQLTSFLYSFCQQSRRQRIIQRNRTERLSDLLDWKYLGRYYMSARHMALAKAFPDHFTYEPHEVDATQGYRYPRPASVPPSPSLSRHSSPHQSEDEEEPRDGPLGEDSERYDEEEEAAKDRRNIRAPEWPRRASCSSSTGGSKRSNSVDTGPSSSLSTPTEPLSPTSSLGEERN
B2: E3 ubiquitin-protein ligase NHLRC1 (Homo sapiens), Q6VVB1 (parent)
chain: MAAEASESGPALHELMREAEISLLECKVCFEKFGHRQQRRPRNLSCGHVVCLACVAALAHPRTLALECPFCRRACRGCDTSDCLPVLHLIELLGSALRQSPAAHRAAPSAPGALTCHHTFGGWGTLVNPTGLALCPKTGRVVVVHDGRRRVKIFDSGGGCAHQFGEKGDAAQDIRYPVDVTITNDCHVVVTDAGDRSIKVFDFFGQIKLVIGGQFSLPWGVETTPQNGIVVTDAEAGSLHLLDVDFAEGVLRRTERLQAHLCNPRGVAVSWLTGAIAVLEHPLALGTGVCSTRVKVFSSSMQLVGQVDTFGLSLYFPSKITASAVTFDHQGNVIVADTSGPAILCLGKPEEFPVPKPMVTHGLSHPVALTFTKENSLLVLDTASHSIKVYKVDWG
partner: B1 chain

Variants of: B1
Conditions: with gys1_mouse Gys1, Q9Z1E4

Row | effect of a mutation on the interaction | Variant
1 | increasing interaction | C265S

Variants of: B2
Conditions: with epm2a_mouse Epm2a

Row | effect of a mutation on the interaction | Variant
2 | decreasing interaction | Q302P

Variants of: B2
Conditions: with epm2a_mouse Epm2a
Remark: another data set of the same source

Row | effect of a mutation on the interaction | Variant
3 | disrupting interaction | D146N

Variants of: B2
Conditions: with epm2a_mouse Epm2a
Remark: another data set of the same source

Row | effect of a mutation on the interaction | Variant
4 | disrupting interaction | E280K

Variants of: B2
Conditions: with epm2a_mouse Epm2a
Remark: another data set of the same source

Row | effect of a mutation on the interaction | Variant
5 | decreasing interaction | C26S

Variants of: B2
Conditions: with epm2a_mouse Epm2a
Remark: another data set of the same source

Row | effect of a mutation on the interaction | Variant
6 | decreasing interaction | L87P

Variants of: B2
Conditions: with epm2a_mouse Epm2a
Remark: another data set of the same source

Row | effect of a mutation on the interaction | Variant
7 | disrupting interaction | P264H

Variants of: B2
Conditions: with epm2a_mouse Epm2a
Remark: another data set of the same source

Row | effect of a mutation on the interaction | Variant
8 | disrupting interaction | I198N

Variants of: B2
Conditions: with epm2a_mouse Epm2a
Remark: another data set of the same source

Row | effect of a mutation on the interaction | Variant
9 | disrupting interaction | D233A
